{
  "source": "paper PMC10491678",
  "molecular_target": "N-terminus His-tag cleaved rBPSL1038 (rBPSL1038-post-cleavage) (Burkholderia pseudomallei) (UniProt Q63W52)",
  "assay": "SEC",
  "data": [
    {"substance": "N-terminus His-tag cleaved rBPSL1038 (rBPSL1038-post-cleavage) (from UniProt Q63W52 1-88) (natural protein)", "values": [
      {"measurement": "stoichiometry N", "value": 2}
    ]}
  ]
}
